First the molecules themselves.
B1: A04 (antibody, human IgG4, V domains shown)
VH: EVQLLESGGGLVQPGGSLRLSCAASGFTFSEYNMAWVRQAPGKGLEWVSRIGSSGGKTKYADSVKGRFTISRDNSKNTLYLQMNSLRAEDTAVYYCARDEAPDYGDDAEAFDIWGQGTMVTVSS
VL: QSALTQPPSASGTPGQRVTISCSGGYSNMGSNYAHWYQQVPGTAPKLLIYNNNQRPSGVPDRFSGSKSGTSASLAISGLRSEDEADYYCAAWDENLSGPVFGTGTKVTVLG
notes: whole human IgG4
B2: D08 (antibody, human IgG4, V domains shown)
VH: EVQLLESGGGLVQPGGSLRLSCAASGFTFSFYAMWWVRQAPGKGLEWVSRIYSSGGKTWYADSVKGRFTISRDNSKNTLYLQMNSLRAEDTAVYYCARVGMSTYAFDIWGQGTMVTVSS
VL: DIQMTQSPSSLSASVGDRVTITCRASQSISDYLNWYQQKPGKAPDLLIYAASSLQSGVPSRFSGSGSGTDFTLTVSSLQPEDFATYFCQQSYSIPLTFGGGTKVEITR
notes: whole human IgG4
B3: C11 (antibody, human IgG4, V domains shown)
VH: EVQLLESGGGLVQPGGSLRLSCAASGFTFSEYPMWWVRQAPGKGLEWVSWIYPSGGNTDYADSVKGRFTISRDNSKNTLYLQMNSLRAEDTAVYYCAIPYCSSSSCPLHWGQGTLVTVSS
VL: QSELTQPPSASGSPGQSVTISCTGTSSDVGGYNYVSWYQQHPDKAPKLLIYEVTQRPSGVPDRFSGSRSGNTASLTVSGLQAEDEADYYCSSYAGRNNLYVFGPGTKVTVLG
notes: whole human IgG4
B4: D04 (antibody, human IgG4, V domains shown)
VH: EVQLLESGGGLVQPGGSLRLSCAASGFTFSDYQMMWVRQAPGKGLEWVSRISPSGGMTRYADSVKGRFTISRDNSKNTLYLPMNSLRAEDTAVYYCARSGPYYFDYWGQGTLVTVSS
VL: DIQMTQSPSSLSASVGDRVAITCRASQSIDTYLNWYQQKPGKAPKLLIYAASKLEDGVPSRFSGSGTGTDFTLTIRSLQPEDFASYFCQQSYSSPGITFGPGTKVEIKR
notes: whole human IgG4
B5: D02 (antibody, human IgG4, V domains shown)
VH: EVQLLESGGGLVQPGGSLRLSCAASGFTFSWYDMAWVRQAPGKGLEWVSRIVPSGGHTSYADSVKGRFTISRDNFKNTLYLQMNSLRAEDTAVYYCARRASRPEFFDYWGQGALVTVSS
VL: DIQMTQSPSFLSASVGDRVTITCRASQGISTYLAWYQQKPGKAPKVLIYTASTLQSGVPSRFSGSGSGTEFTLTISSLQPEDFATYYCQQSYITPPEVTFGPGTKVDIKR
notes: whole human IgG4
B6: D06 (antibody, human IgG4, V domains shown)
VH: EVQLLESGGGLVQPGGSLRLSCAASGFTFSGYIMEWVRQAPGKGLEWVSVIVSSGGFTMYADSVKGRFTISRDNSKNTLYLQMNSLRAEDTAVYYCARVGDSKGGYYLDYWGQGTLVTVSS
VL: DIQMTQSPSSLSASVGDRVTITCRTSQIINTYLNWYQQKPGKAPKLLIYAASTLQGGVPSRFSGSGSGTDFTLTIKSLQPDDFATYYCQQSYTSPRTFGQGTKVEIKR
notes: whole human IgG4
B7: D03 (antibody, human IgG4, V domains shown)
VH: EVQLLESGGGLVQPGGSLRLSCAASGFTFSWYRMDWVRQAPGKGLEWVSVIGSSGGMTYYADSVKGRFTISRDNSKNTLYLQMNSLRAEDTAVYYCARRVVGGAGMDVWGQGTTVTVSS
VL: DIQMTQSPSAMSASVGDRVTITCRASQVMINYIAWFRQKPGKVPERLIYAASTLQNGVPSRFSGSGSGTDFTLTISRLEPEDFAVYYCQHRITWPPALTFGGGTTVEIKR
notes: whole human IgG4
B8: D07 (antibody, human IgG4, V domains shown)
VH: EVQLLESGGGLVQPGGSLRLSCAASGFTFSEYNMFWVRQAPGKGLEWVSYIYSSGGSTDYADSVKGRFTISRDNSKNTLYLQMNSLRAEDTAVYYCARVGIAARPFDPWGQGTLVTVSS
VL: QSELTQPASVSGSPGQSITISCTGTNSDIGGYNYVSWYQQHPGKVPKLLIFEVNNRPSGVSSRFSGSKSGDTASLTISGLQPEDEAVYYCGSFTVSVTYVFGTGTKVTVLG
notes: whole human IgG4
B9: A06 (antibody, human IgG4, V domains shown)
VH: EVQLLESGGGLVQPGGSLRLSCAASGFTFSPYHMGWVRQAPGKGLEWVSGIYPSGGWTNYADSVKGRFTISRDNSKNTLYLQMNSLRAEDTAVYYCARDGYSSGWFRYWGQGTLVTVSS
VL: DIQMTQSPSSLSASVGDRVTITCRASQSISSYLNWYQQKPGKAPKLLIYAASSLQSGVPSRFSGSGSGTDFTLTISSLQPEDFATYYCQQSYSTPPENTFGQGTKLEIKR
notes: whole human IgG4
B10: A05 (antibody, human IgG4, V domains shown)
VH: EVQLLESGGGLVQPGGSLRLSCAASGFTFSVYSMNWVRQAPGKGLEWVSYIVPSGGNTPYADSVKGRFTISRDNSKNTLYLQMNSLRAEDTAVYYCARDGAATVDLDYWGQGTLVTVSS
VL: DIQMTQSPSSLSLSPGERATLSCRASQSVSSYLAWYQQKPGQAPRLLIYDASNRATGIPARFSGSGSGTDFTLTISSLEPEDFAVYYCQQRSNWPRTFGGGTKVEIKR
notes: whole human IgG4
B11: D01 (antibody, V domains shown)
VH: EVQLLESGGGLVQPGGSLRLSCAASGFTFSMYLMFWVRQAPGKGLEWVSVISSSGGETSYADSVKGRFTISRDNSKNTLYLQMNSLRAEDTAVYYCARQVSDWTRLYSFDYWGQGTLVTVSS
VL: QSELTQPPSASGTPGQRITISCSGSSSNIGSNYVYWYQQFPETAPKLLISRNDQRPSGVPDRFSGSKSGTSASLAISGLRSEDEADYYCASWDDSLSGVVFGGGTKLTVLG
notes: whole human IgG4
B12: D09 (antibody, V domains shown)
VH: EVQLLESGGGLVQPGGSLRLSCAASGFTFSHYNMHWVRQAPGKGLEWVSGIVSSGGNTGYADSVKGRFTISRDNSKNTLYLQMNSLRAEDTAVDYCARVVRYSSGWYYWFDPWGQGTLVTVSS
VL: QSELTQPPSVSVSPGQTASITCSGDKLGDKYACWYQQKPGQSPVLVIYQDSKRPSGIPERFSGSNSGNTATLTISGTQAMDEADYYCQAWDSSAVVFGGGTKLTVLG
notes: whole human IgG4

Experimental findings from patent publication US7514534 (DYAX, dated 2009) are described below.

T2 sequence (P08254 100-477 limits assumed): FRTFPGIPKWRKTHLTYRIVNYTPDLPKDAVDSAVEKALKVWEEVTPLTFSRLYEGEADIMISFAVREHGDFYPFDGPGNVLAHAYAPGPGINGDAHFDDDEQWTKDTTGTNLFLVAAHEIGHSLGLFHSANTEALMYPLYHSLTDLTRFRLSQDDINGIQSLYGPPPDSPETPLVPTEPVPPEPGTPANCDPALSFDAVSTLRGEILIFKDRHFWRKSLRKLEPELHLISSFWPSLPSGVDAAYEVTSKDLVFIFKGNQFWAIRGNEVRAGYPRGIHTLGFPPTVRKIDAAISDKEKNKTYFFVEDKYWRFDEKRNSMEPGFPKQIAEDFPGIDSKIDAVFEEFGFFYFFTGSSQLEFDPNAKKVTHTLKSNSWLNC

In one assay the target is T1, MMP-9 (UniProt P14780 107-707, limits assumed).
T1 construct: also called gelatinase
T1 sequence (P14780 107-707 limits assumed): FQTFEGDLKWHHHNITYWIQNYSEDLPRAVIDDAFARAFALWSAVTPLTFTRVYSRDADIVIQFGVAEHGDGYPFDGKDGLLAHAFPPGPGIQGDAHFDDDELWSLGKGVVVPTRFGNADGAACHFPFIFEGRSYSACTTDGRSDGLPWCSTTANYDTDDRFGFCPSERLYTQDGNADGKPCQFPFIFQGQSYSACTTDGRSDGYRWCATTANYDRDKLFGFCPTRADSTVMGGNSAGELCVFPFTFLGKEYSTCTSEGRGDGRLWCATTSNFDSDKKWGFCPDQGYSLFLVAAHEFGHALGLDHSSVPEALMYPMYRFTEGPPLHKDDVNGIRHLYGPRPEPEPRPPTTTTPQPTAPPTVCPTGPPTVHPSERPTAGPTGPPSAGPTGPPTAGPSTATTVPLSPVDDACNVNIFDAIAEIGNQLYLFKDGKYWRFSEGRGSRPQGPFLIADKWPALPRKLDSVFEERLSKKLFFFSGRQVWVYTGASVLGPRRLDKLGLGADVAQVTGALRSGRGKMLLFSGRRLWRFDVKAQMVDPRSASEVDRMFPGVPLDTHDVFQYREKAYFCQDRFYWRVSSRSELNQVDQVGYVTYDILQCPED
Briefly: cross-reactivity ELISA on coated MMP. The procedure:
(§1) Twenty-one of the reformatted MMP-26 antibodies were tested for MMP cross reactivity by ELISA analysis. MMP-3, MMP-7, MMP-9, and MMP-12 were coated onto Immulon 2 HB 96-well plates at a concentration of 1 μg/ml for 1 hour at 37° C. The plates were blocked with PBS-T containing 5% (w/v) nonfat dry milk for thirty minutes and subsequently washed with PBS-T. Each antibody was tested for reactivity to all of the above mentioned MMPs at a concentration of 2 μg/ml with an incubation time of 1 hour. Bound antibody was detected with an HRP-conjugated anti-human secondary antibody (Table 3, NT=not tested.).
Background: An ELISA detects its analyte on a solid surface through an enzyme-linked reagent.
With B1, the binding result is on record as “no binding (tested: 2 µg/ml)”.

Regarding B2, the binding result is “no binding (tested: 2 µg/ml)”.

On to B3, for which the binding result was “no binding (tested: 2 µg/ml)”.

Consider B4, for which the binding result was “no binding (tested: 2 µg/ml)”.

On to B5, for which the binding result is on record as “no binding (tested: 2 µg/ml)”.

As to B6, the binding result is “no binding (tested: 2 µg/ml)”.

B7: the binding result is recorded as “no binding (tested: 2 µg/ml)”.

As for B8, the binding result is recorded as “no binding (tested: 2 µg/ml)”.

With B9, the binding result is recorded as “no binding (tested: 2 µg/ml)”.

Consider B10, for which the binding result is given as “no binding (tested: 2 µg/ml)”.

As to B11, the binding result is listed as “no binding (tested: 2 µg/ml)”.

B12: the binding result is “no binding (tested: 2 µg/ml)”.

A further assay concerns the target T2, MMP-3 (UniProt P08254 100-477, limits assumed).
T2 construct: also called stromelysin-1
The assay is described as follows: cross-reactivity ELISA on coated MMP. The procedure: as §1
B1: the binding result is “no binding (tested: 2 µg/ml)”.

B2: the binding result is recorded as “no binding (tested: 2 µg/ml)”.

Turning to B3, the binding result was “no binding (tested: 2 µg/ml)”.

Take B4: the binding result is on record as “no binding (tested: 2 µg/ml)”.

On to B5, for which the binding result is given as “no binding (tested: 2 µg/ml)”.

B6: the binding result is reported as “no binding (tested: 2 µg/ml)”.

With B7, the binding result is given as “no binding (tested: 2 µg/ml)”.

B8: the binding result is reported as “no binding (tested: 2 µg/ml)”.

For the molecule B9, the binding result is “no binding (tested: 2 µg/ml)”.

Consider B10, for which the binding result is “no binding (tested: 2 µg/ml)”.

With B11, the binding result is given as “no binding (tested: 2 µg/ml)”.

For B12, the binding result is given as “no binding (tested: 2 µg/ml)”.

In another assay the target is T3, MMP-26 catalytic domain, tagged with hexa-histidine (human, UniProt Q9NRE1 90-261).
T3 construct: the forward primer adds Met-Ala before it; also called MMP-26 target protein; Matrilysin-2; not shown: Also any N-terminal residues added by the forward primer (Met-Ala according to our card; the primers were not visible to me)
T3 sequence: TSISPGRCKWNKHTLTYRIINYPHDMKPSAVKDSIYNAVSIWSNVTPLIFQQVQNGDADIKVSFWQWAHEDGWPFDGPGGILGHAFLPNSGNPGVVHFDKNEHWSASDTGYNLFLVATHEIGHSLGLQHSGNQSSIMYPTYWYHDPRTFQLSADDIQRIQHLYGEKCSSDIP
The assay is described as follows: bead-based ELISA, MMP-26 on nickel beads, IgG4 culture supernatant. How it is done:
Reformatted and expressed full-length MMP-26 binding IgG4 antibodies were tested for specificity in a bead-based ELISA. Approximately 1.25 μg of MMP-26 protein was bound to nickel-coated magnetic beads (Novagen) which had been pre-blocked with phosphate buffered saline containing 5% (w/v) nonfat dry milk and 0.05% (v/v) Tween-20. The beads were washed in phosphate buffered saline containing 0.05% (v/v) Tween-20 (PBS-T) and 100 uls of unpurified cell culture supernatant containing transiently produced MMP-26-binding antibodies was added and incubated on a rotator for sixty minutes. The beads were washed with PBS-T and MMP-26-binding antibodies were detected with an HRP-conjugated anti-human secondary antibody. Data is expressed in fold over background where background consists of beads, blocking agent, and culture supernatant containing target antibody (Table 2; in this table, Results shown as fold over background (F>B) where background consists of beads, blocking agent, and culture supernatant).
Regarding B1, the “F > B (fold over background)” value is 3.17 fold over background.

Turning to B2, the “F > B (fold over background)” value stood at 3 fold over background.

Consider B3, for which the “F > B (fold over background)” value worked out at 2.6 fold over background.

Consider B4, for which the “F > B (fold over background)” value was 2.6 fold over background.

Turning to B5, the “F > B (fold over background)” value amounted to 3.3 fold over background.

As for B6, the “F > B (fold over background)” value came to 3.5 fold over background.

As for B7, the “F > B (fold over background)” value amounted to 2.4 fold over background.

On to B8, for which the “F > B (fold over background)” value came to 3.3 fold over background.

As for B9, the “F > B (fold over background)” value was 5.4 fold over background.

Consider B10, for which the “F > B (fold over background)” value was 2.48 fold over background.

Turning to B11, the “F > B (fold over background)” value is 3 fold over background.

As to B12, the “F > B (fold over background)” value came out at 4.3 fold over background.
